Results reported in patent US20060067940A1 (WASHINGTON UNIVERSITY, published 2006).

Molecular target: T1, WNV E protein on virions of WNV New York strain (lineage I) (West Nile virus (New York strain), UniProt Q9Q6P4 291-791)
T1 sequence (looked up): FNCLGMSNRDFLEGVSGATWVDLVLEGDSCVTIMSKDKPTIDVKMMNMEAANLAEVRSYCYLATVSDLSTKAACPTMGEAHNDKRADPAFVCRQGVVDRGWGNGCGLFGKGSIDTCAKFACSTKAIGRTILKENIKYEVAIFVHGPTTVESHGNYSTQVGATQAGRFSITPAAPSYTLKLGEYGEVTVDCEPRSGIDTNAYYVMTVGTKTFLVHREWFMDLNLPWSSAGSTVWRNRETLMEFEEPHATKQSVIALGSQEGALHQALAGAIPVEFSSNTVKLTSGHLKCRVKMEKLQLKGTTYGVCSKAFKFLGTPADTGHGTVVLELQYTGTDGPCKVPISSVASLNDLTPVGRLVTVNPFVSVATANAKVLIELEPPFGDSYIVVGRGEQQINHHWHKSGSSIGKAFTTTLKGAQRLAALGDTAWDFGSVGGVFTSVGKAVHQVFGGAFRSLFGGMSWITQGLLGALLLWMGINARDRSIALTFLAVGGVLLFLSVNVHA
Assay: cell-based or functional assay

B1: WNV E16 (monoclonal antibody produced by hybridoma clone E16 C4 E4, ATCC PTA-6050) (antibody, V domains shown)
VH: QVQLQQSGSELMKPGASVQISCKATGYTFSDYWIEWVKQRPGHGLEWIGDILCGTGRTRYNEKLKAMATFTADTSSNTAFMQLSSLTSEDSAVYYCARSASYGDYADYWGHGTTLTVSS
VL: DIVMTQSHKFMSTSVGDRVSITCKASQDVSTAVAWYQQKPGQSPKLLISWASTRHTGVPDRFTGSGSGTDYTLTISSVQAEDLALYYCQQHYTTPLTFGAGTKLELK
  PRNT assay, potency against human γ-globulin preparation: ~1000 fold
